Positions count from the first letter of the chain named. Names and notes keep the numbering of the source.
Tests used:
[1] = target: T1, (S)-ureidoglycolate dehydrogenase (AllD) (Escherichia coli, UniProt P77555); test: X-ray crystal structure, soaking, […] Å; type: binding; details: ternary complex with NADH; soaked with 7.5 mM oxalurate reaction mixture, glyoxylate modelled in subunit A only, pH 8.1
T1 construct: full length, modified pET28b with N-terminal His-tag and TEV site, expressed in E. coli BL21(DE3); tag cut for crystals, kept on mutant enzymes for kinetics; homodimer

[2] = target: T1, (S)-ureidoglycolate dehydrogenase (AllD); test: X-ray crystal structure, soaking, […] Å; type: binding; details: 100 mM NADH soak, pH 8.1; one NADH in each subunit; site includes residues of the other subunit
purified protein [3] = substrate: NC(=O)N[C@@H](O)C(=O)O; test: purified protein; type: biochemical, Escherichia coli; details: 3 mM NAD+ (saturating), 30 °C, value in parentheses is standard error
purified protein [4] = substrate: NC(=O)c1ccc[n+]([C@@H]2O[C@H](COP(=O)(O)OP(=O)(O)OC[C@H]3O[C@@H](n4cnc5c(N)ncnc54)[C@H](O)[C@@H]3O)[C@@H](O)[C@H]2O)c1; test: purified protein; type: biochemical, Escherichia coli; details: 15.3 mM (S)-ureidoglycolate, 30 °C, value in parentheses is standard error
[5] = target: the molecule itself; test: SEC; size-exclusion chromatography of AllD; conditions not described

T1 sequence (P77555 whole entry): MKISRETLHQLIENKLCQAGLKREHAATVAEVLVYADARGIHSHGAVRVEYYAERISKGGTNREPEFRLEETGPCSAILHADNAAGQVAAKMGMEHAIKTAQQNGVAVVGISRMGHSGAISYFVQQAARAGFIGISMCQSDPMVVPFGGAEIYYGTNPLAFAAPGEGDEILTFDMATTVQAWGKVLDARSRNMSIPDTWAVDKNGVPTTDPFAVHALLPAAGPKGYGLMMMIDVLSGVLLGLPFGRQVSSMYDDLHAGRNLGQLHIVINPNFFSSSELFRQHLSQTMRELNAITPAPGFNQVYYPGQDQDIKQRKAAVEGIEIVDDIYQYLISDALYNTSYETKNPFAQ

O=CC(=O)O [glyoxylate]
X-ray crystal structure, soaking, 1.77 Å [1]: 4FJU for the AllD-NADH-glyoxylate ternary complex

NC(=O)C1=CN([C@@H]2O[C@H](COP(=O)(O)OP(=O)(O)OC[C@H]3O[C@@H](n4cnc5c(N)ncnc54)[C@H](O)[C@@H]3O)[C@@H](O)[C@H]2O)C=CC1 [NADH]
X-ray crystal structure, soaking, 1.64 Å [2]: 4H8A for the AllD-NADH binary complex

B1: (S)-ureidoglycolate dehydrogenase (AllD) (Escherichia coli K-12; Y52F) (protein)
chain: MKISRETLHQLIENKLCQAGLKREHAATVAEVLVYADARGIHSHGAVRVEYFAERISKGGTNREPEFRLEETGPCSAILHADNAAGQVAAKMGMEHAIKTAQQNGVAVVGISRMGHSGAISYFVQQAARAGFIGISMCQSDPMVVPFGGAEIYYGTNPLAFAAPGEGDEILTFDMATTVQAWGKVLDARSRNMSIPDTWAVDKNGVPTTDPFAVHALLPAAGPKGYGLMMMIDVLSGVLLGLPFGRQVSSMYDDLHAGRNLGQLHIVINPNFFSSSELFRQHLSQTMRELNAITPAPGFNQVYYPGQDQDIKQRKAAVEGIEIVDDIYQYLISDALYNTSYETKNPFAQ
notes: full length, modified pET28b with N-terminal His-tag and TEV site, expressed in E. coli BL21(DE3); tag cut for crystals, kept on mutant enzymes for kinetics; homodimer
Km (purified protein [3]; His-tag kept): 16.82 (3.92) mM | kcat (purified protein [3]; His-tag kept): 1.92 s⁻¹ | kcat/Km (purified protein [3]; His-tag kept): 110 M⁻¹ s⁻¹

B2: (S)-ureidoglycolate dehydrogenase (AllD) (Escherichia coli K-12; S140A) (protein)
chain: B1 chain with F52Y, S140A
notes: as for B1
Km (purified protein [3]; His-tag kept): 12.38 (2.19) mM | kcat (purified protein [3]; His-tag kept): 1.29 s⁻¹ | kcat/Km (purified protein [3]; His-tag kept): 100 M⁻¹ s⁻¹

B3: (S)-ureidoglycolate dehydrogenase (AllD) (Escherichia coli K-12; D141A) (protein)
chain: B1 chain with F52Y, D141A
notes: as for B1
Km (purified protein [3]; His-tag kept): 5.27 (0.46) mM | kcat (purified protein [3]; His-tag kept): 1.62 s⁻¹ | kcat/Km (purified protein [3]; His-tag kept): 310 M⁻¹ s⁻¹

B4: (S)-ureidoglycolate dehydrogenase (AllD) (Escherichia coli K-12; D141N) (protein)
chain: B1 chain with F52Y, D141N
notes: as for B1
Km (purified protein [3]; His-tag kept): 5.84 (0.25) mM | kcat (purified protein [3]; His-tag kept): 1.97 s⁻¹ | kcat/Km (purified protein [3]; His-tag kept): 340 M⁻¹ s⁻¹

B5: (S)-ureidoglycolate dehydrogenase (AllD) (Escherichia coli K-12; D141E) (protein)
chain: B1 chain with F52Y, D141E
notes: as for B1
Km (purified protein [3]; His-tag kept): 14.13 (2.37) mM | kcat (purified protein [3]; His-tag kept): 1.67 s⁻¹ | kcat/Km (purified protein [3]; His-tag kept): 120 M⁻¹ s⁻¹

B6: (S)-ureidoglycolate dehydrogenase (AllD) (Escherichia coli K-12; R259A) (protein)
chain: B1 chain with F52Y, R259A
notes: as for B1
Km (purified protein [3]; His-tag kept): 11.47 (1.25) mM | kcat (purified protein [3]; His-tag kept): 12 s⁻¹ | kcat/Km (purified protein [3]; His-tag kept): 1040 M⁻¹ s⁻¹ | Km (purified protein [4]; His-tag kept): 1.49 (0.07) mM | kcat (purified protein [4]; His-tag kept): 9.29 s⁻¹ | kcat/Km (purified protein [4]; His-tag kept): 6230 M⁻¹ s⁻¹

B7: (S)-ureidoglycolate dehydrogenase (AllD) (Escherichia coli K-12; H44A) (protein)
chain: B1 chain with H44A, F52Y
notes: as for B1
Km (purified protein [3]; His-tag kept): 16.94 (2.04) mM | kcat (purified protein [3]; His-tag kept): 1.76 s⁻¹ | kcat/Km (purified protein [3]; His-tag kept): 100 M⁻¹ s⁻¹

B8: (S)-ureidoglycolate dehydrogenase (AllD) (Escherichia coli K-12; S43A) (protein)
chain: B1 chain with S43A, F52Y
notes: as for B1
Km (purified protein [3]; His-tag kept): 10.75 (1.01) mM | kcat (purified protein [3]; His-tag kept): 1.37 s⁻¹ | kcat/Km (purified protein [3]; His-tag kept): 130 M⁻¹ s⁻¹

B9: (S)-ureidoglycolate dehydrogenase (AllD) (Escherichia coli K-12; M251A) (protein)
chain: B1 chain with F52Y, M251A
notes: as for B1
Km (purified protein [3]; His-tag kept): 13.15 (1.62) mM | kcat (purified protein [3]; His-tag kept): 46 s⁻¹ | kcat/Km (purified protein [3]; His-tag kept): 3490 M⁻¹ s⁻¹

B10: (S)-ureidoglycolate dehydrogenase (AllD) from Escherichia coli (enzyme, Escherichia coli str. K-12 substr. DH10b, UniProt P77555 1-349, looked up)
chain: B1 chain with F52Y
notes: (S)-ureidoglycolate dehydrogenase AllD, product of the allD gene of E. coli str; K-12 substr; DH10b; ordered residues in the crystals Met1 to Tyr337/Asn338 (subunit A); Homodimer; Cloned into a modified pET28b with a TEV site between the His-tag and the multicloning sites; also called EC 1.1.1.154; not shown: His-tag, N-terminal, cleaved
Km (purified protein [3]): 1.06 (0.08) mM | kcat (purified protein [3]): 57.1 s⁻¹ | kcat/Km (purified protein [3]): 54300 M⁻¹ s⁻¹ | Km (purified protein [4]): 0.56 (0.04) mM | kcat (purified protein [4]): 62.4 s⁻¹ | kcat/Km (purified protein [4]): 110000 M⁻¹ s⁻¹ | stoichiometry N [5]: 2

Source: paper PMC3527362, “Structural and Functional Insights into (S)-Ureidoglycolate Dehydrogenase, a Metabolic Branch Point Enzyme in Nitrogen Utilization” (PLoS ONE, 2012)
